For assay [1], the target named is fluorescently-labeled NCP carrying H2AK13ub and H2AK15ub (NCP^ub) (human) (UniProt P0CG48). Nature of the assay: fluorescence polarisation. (Polarisation of emitted light reports the rotation of a fluorescent probe.)
For assay [2], the target named is fluorescently-labeled nucleosome core particle (NCP) (human). The experiment in a line: fluorescence polarisation.

As usually defined, the Kd is the free concentration of one partner at which half of the binding sites on the other are occupied at equilibrium, for simple one-to-one binding. Lower therefore signals tighter binding. As to “RNF168 MIU2-LRM (aa 430–481) (from UniProt Q8IYW5 430-481) (domain or fragment)”, in assay [1], the Kd came out at 1400 nM.

Regarding “RNF168 RING domain (RNF168^R, aa 1–94) (from UniProt Q8IYW5 1-94) (domain or fragment)”, the Kd in assay [2] was found to be 400 nM.

On to “full-length human RNF168 (RNF168^FL, aa 1–571) (from UniProt Q8IYW5 1-571) (natural protein)”, for which the Kd in assay [1] turned out to be 50 nM; in assay [2], 120 nM.
